Reference: patent US20090228996A1, “Means and Methods for influencing Interactions Between Dc-Sign and Dc-Sign Ligands” (priority 2006, published 2009)

T1: DC-SIGN on Raji-DC-SIGN cells (Homo sapiens, UniProt Q9NNX6)
T1 construct: expressed in transfected cells; host or cells: Raji cells (Raji-DC-SIGN)
T1 sequence (Q9NNX6 1-404): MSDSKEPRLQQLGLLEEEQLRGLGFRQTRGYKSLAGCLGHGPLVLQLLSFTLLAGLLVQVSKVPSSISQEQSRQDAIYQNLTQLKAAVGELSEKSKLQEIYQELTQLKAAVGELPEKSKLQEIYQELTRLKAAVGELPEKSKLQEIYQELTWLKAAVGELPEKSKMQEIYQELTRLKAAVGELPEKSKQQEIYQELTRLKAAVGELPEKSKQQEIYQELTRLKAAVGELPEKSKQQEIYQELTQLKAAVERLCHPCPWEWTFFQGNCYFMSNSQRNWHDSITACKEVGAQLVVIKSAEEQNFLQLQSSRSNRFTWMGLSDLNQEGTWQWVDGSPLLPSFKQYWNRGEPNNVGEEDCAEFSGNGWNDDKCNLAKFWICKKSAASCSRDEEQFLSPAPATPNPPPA

T2: DC-SIGN (Homo sapiens, UniProt Q9NNX6)
T2 sequence (Q9NNX6 1-404): T1 sequence (Q9NNX6 1-404)

T3: DC-SIGN on iDCs (Homo sapiens, UniProt Q9NNX6)
T3 construct: endogenous in cells
T3 sequence (Q9NNX6 1-404): T1 sequence (Q9NNX6 1-404)

T4: DC-SIGN-Fc (Homo sapiens, UniProt Q9NNX6)
T4 construct: the extracellular portion of DC-SIGN (amino acids 64 to 404)
T4 sequence (Q9NNX6 64-404): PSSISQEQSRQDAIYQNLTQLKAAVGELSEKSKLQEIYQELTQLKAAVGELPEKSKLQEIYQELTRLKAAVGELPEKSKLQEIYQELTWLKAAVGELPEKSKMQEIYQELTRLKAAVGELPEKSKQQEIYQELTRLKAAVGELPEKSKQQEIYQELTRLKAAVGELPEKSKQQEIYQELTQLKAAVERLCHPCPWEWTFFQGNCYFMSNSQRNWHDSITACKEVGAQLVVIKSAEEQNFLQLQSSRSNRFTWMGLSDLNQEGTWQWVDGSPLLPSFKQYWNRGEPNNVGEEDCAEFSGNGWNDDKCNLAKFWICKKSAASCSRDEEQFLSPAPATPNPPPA

B1: human SLPI: human milk protein SLPI (Sigma) (protein, UniProt P03973 26-132, looked up)
Antileukoproteinase: SGKSFKAGVCPPKKSAQCLRYKKPECQSDWQCPGKKRCCPDTCGIKCLDPVDTPNPTRRKPGKCPVTYGQCLMLNPPNFCEMDGQCKRDLKCCMGMCGKSCVSPVKA
B2: bovine β-casein: milk protein (NIZO Food Research) (protein, UniProt P02666 16-224, looked up)
Beta-casein: RELEELNVPGEIVESLSSSEESITRINKKIEKFQSEEQQQTEDELQDKIHPFAQTQSLVYPFPGPIPNSLPQNIPPLTQTPVVVPPFLQPEVMGVSKVKEAMAPKHKEMPFPKYPVEPFTESQSLTLTDVENLHLPLPLLQSWMHQPHQPLPPTVMFPPQSVLSLSQSKVLPVPQKAVPYPQRDMPIQAFLLYQEPVLGPVRGPFPIIV
B3: human α-lactalbumin: major human milk protein (Sigma) (protein, UniProt P00709 20-142, looked up)
Alpha-lactalbumin: KQFTKCELSQLLKDIDGYGGIALPELICTMFHTSGYDTQAIVENNESTEYGLFQISNKLWCKSSQVPQSRNICDISCDKFLDDDITDDIMCAKKILDIKGIDYWLAHKALCTEKLEQWLCEKL
B4: human lactoferrin: major human milk protein (Sigma-Aldrich) (protein, UniProt P02788 20-710, looked up)
Lactotransferrin: GRRRSVQWCAVSQPEATKCFQWQRNMRKVRGPPVSCIKRDSPIQCIQAIAENRADAVTLDGGFIYEAGLAPYKLRPVAAEVYGTERQPRTHYYAVAVVKKGGSFQLNELQGLKSCHTGLRRTAGWNVPIGTLRPFLNWTGPPEPIEAAVARFFSASCVPGADKGQFPNLCRLCAGTGENKCAFSSQEPYFSYSGAFKCLRDGAGDVAFIRESTVFEDLSDEAERDEYELLCPDNTRKPVDKFKDCHLARVPSHAVVARSVNGKEDAIWNLLRQAQEKFGKDKSPKFQLFGSPSGQKDLLFKDSAIGFSRVPPRIDSGLYLGSGYFTAIQNLRKSEEEVAARRARVVWCAVGEQELRKCNQWSGLSEGSVTCSSASTTEDCIALVLKGEADAMSLDGGYVYTAGKCGLVPVLAENYKSQQSSDPDPNCVDRPVEGYLAVAVVRRSDTSLTWNSVKGKKSCHTAVDRTAGWNIPMGLLFNQTGSCKFDEYFSQSCAPGSDPRSNLCALCIGDEQGENKCVPNSNERYYGYTGAFRCLAENAGDVAFVKDVTVLQNTDGNNNEAWAKDLKLADFALLCLDGKRKPVTEARSCHLAMAPNHAVVSRMDKVERLKQVLLHQQAKFGRNGSDCPDKFCLFQSETKNLLFNDNTECLARLHGKTTYEKYLGPQYVAGITNLKKCSTSPLLEACEFLRK
B5: bovine lactoferrin: control protein previously shown to bind DC-SIGN (protein, UniProt P24627 20-708, looked up)
Lactotransferrin: APRKNVRWCTISQPEWFKCRRWQWRMKKLGAPSITCVRRAFALECIRAIAEKKADAVTLDGGMVFEAGRDPYKLRPVAAEIYGTKESPQTHYYAVAVVKKGSNFQLDQLQGRKSCHTGLGRSAGWIIPMGILRPYLSWTESLEPLQGAVAKFFSASCVPCIDRQAYPNLCQLCKGEGENQCACSSREPYFGYSGAFKCLQDGAGDVAFVKETTVFENLPEKADRDQYELLCLNNSRAPVDAFKECHLAQVPSHAVVARSVDGKEDLIWKLLSKAQEKFGKNKSRSFQLFGSPPGQRDLLFKDSALGFLRIPSKVDSALYLGSRYLTTLKNLRETAEEVKARYTRVVWCAVGPEEQKKCQQWSQQSGQNVTCATASTTDDCIVLVLKGEADALNLDGGYIYTAGKCGLVPVLAENRKSSKHSSLDCVLRPTEGYLAVAVVKKANEGLTWNSLKDKKSCHTAVDRTAGWNIPMGLIVNQTGSCAFDEFFSQSCAPGADPKSRLCALCAGDDQGLDKCVPNSKEKYYGYTGAFRCLAEDVGDVAFVKNDTVWENTNGESTADWAKNLNREDFRLLCLDGTRKPVTEAQSCHLAVAPNHAVVSRSDRAAHVKQVLLHQQALFGKNGKNCPDKFCLFKSETKNLLFNDNTECLAKLGGRPTYEEYLGTEYVTAIANLKKCSTSPLLEACAFLTR

Target: T1, DC-SIGN on Raji-DC-SIGN cells
Assay: gp120 bead adhesion assay, Raji-DC-SIGN cells
Type: cell-based
Conditions: major milk proteins at 1/20 dilution of physiological concentration in human milk
Protocol: (§1) gp120 bead adhesion assay. Beads were prepared as previously described (Geijtenbeek et al, 2000 a), in short, streptavidin was covalently coupled to Carboxylate-modified TransFluoSpheres (488/645 nm, 1.0 μm; molecular probes). The steptavidin-beads were incubated with biotinylated F(ab′)2 fragment goat-anti-human IgG (6 μg/ml; Jackson Immunoresearch) and subsequently incubated overnight with gp120-Fc chimera. Fifty thousand cells, Raji-DC-SIGN cells, immature DCs or Raji-L-SIGN cells, were pre-incubated with human milk or milk compounds, AZN-D1 (Geijtenbeek et al, 2000 a), AZN-D2 (Halary et al, 2002), EGTA or mannan for 30 minutes at RT. The ligand-coated beads (20 beads/cell) were added to the pre-incubated cells and incubated for 30 minutes at 37° C. after which the cells were washed with TSM containing 0.5% BSA. After washing, the cells were resuspended in 100 μl TSM-BSA buffer and the adhesion was measured by flow cytometry (BD Biosciences).
(§2) gp120 bead adhesion assay. Beads were prepared as previously described (Geijtenbeek et al, 2000 a), in short, streptavidin was covalently coupled to Carboxylate-modified TransFluoSpheres (488/645 nm, 1.0 μm; molecular probes). The steptavidin-beads were incubated with biotinylated F(ab′)2 fragment goat-anti-human IgG (6 μg/ml; Jackson Immunoresearch) and subsequently incubated overnight with the gp120-Fc chimera. Fifty thousand cells, Raji-DC-SIGN cells or iDCs were pre-incubated with human milk, AZN-D1 (Geijtenbeek et al, 2000 a), AZN-D2 (Halary et al, 2002), EGTA or mannan for 30 minutes at RT. The ligand-coated beads (20 beads/cell) were added to the pre-incubated cells and incubated for 30 minutes at 37° C. after which the cells were washed with TSM (20 mM Tris, 150 mM NaCl, 1 mM CaCl2, 2 mM MgCl2) containing 0.5% BSA. After washing, the cells were resuspended in 100 μl TSM-BSA buffer and the adhesion was measured by flow cytometry (BD Biosciences).

Row | Molecule | gp120 binding to Raji-DC-SIGN
1 | B1 | None of the tested human milk compounds could inhibit gp120 binding
2 | B2 | None of the tested human milk compounds could inhibit gp120 binding
3 | B3 | None of the tested human milk compounds could inhibit gp120 binding
4 | B4 | None of the tested human milk compounds could inhibit gp120 binding

Target: T2, DC-SIGN
Assay: not given
Conditions: literature; cited from earlier work

Row | Molecule | previously shown DC-SIGN binding
5 | B5 | bind DC-SIGN and prevent viral transfer

Target: T3, DC-SIGN on iDCs
Assay: gp120 bead adhesion assay, immature DCs
Type: cell-based
Conditions: major milk proteins at 1/20 dilution of physiological concentration in human milk
Protocol: as §1, §2

Row | Molecule | gp120 binding to iDCs
6 | B1 | None of the tested human milk compounds could inhibit gp120 binding
7 | B2 | None of the tested human milk compounds could inhibit gp120 binding
8 | B3 | None of the tested human milk compounds could inhibit gp120 binding
9 | B4 | None of the tested human milk compounds could inhibit gp120 binding

Target: T4, DC-SIGN-Fc
Assay: DC-SIGN-Fc binding ELISA
Conditions: major milk proteins at 1/20 dilution of physiological concentration in human milk
Protocol: DC-SIGN-Fc binding ELISA. The DC-SIGN-Fc chimera contained the extracellular portion of DC-SIGN (amino acids 64 to 404) fused at the C-terminus to a human immunoglobulin (Ig) G1 Fc fragment and has been previously described (Geijtenbeek et al, 2002). Human milk or human milk compounds were diluted in 0.2M NaHCO3, coated on ELISA plates (maxisorb plate; Nunc) and incubated overnight at 4° C. or 2 hours at 37° C. This was followed by blocking with TSM containing 1% BSA for 30 minutes at 37° C. before addition of soluble DC-SIGN-Fc (5 μg/ml) for 2 hours at RT, the binding was determined by incubation of a peroxidase labeled anti-IgG1 antibody for 30 minutes at RT. DC-SIGN-Fc binding specificity was determined by pre-incubation of the DC-SIGN-FC with either 50 μg/ml DC-SIGN specific mouse antibody AZN-D1 (Geijtenbeek et al, 2000 a) or 10 mM EGTA. Single-cycle-replication transmission assay. The assay was performed as previously described (Groot et al, 2005). In short mDCs and iDCs were incubated in a 96-well-plate (35−50×10^3 DC/well) with human milk for 30 minutes at 37° C. before addition of the virus (5 ng p24/well), which was incubated for 2 hours at 37° C. The DCs were washed twice with PBS before addition of 50×10^3 LuSIV cells. After 24 hours, LuSIV cells were harvested and resuspended in 50 μl lysis buffer (25 mM Tris-Cl 7.8, 2 mM DTT, 2 mM CDTA, 10% glycerol, 1% Triton X100). The cells were then incubated for 45 minutes at room temperature while shaking, followed by 10 minutes centrifugation at 3200×g. The supernatant was transferred to a white-solid 96 well plate (Corning Costar), and 150 μl of lucibuffer (100 μg/ml BSA, 6.6 mM ATP, 15 mM MgSO4, 25 mM glycylglycine) was added. 100 μl of DE(−)Luciferin (Roche Diagnostics GmbH) was injected per well (0.28 mg/ml lucibuffer excluding ATP). 50×10^3 LuSIV cells grown without DC or HIV-1 were used to obtain the background luciferase value.
DC-SIGN-Fc binding ELISA. The DC-SIGN-Fc chimera contained the extracellular portion of DC-SIGN (amino acids 64 to 404) fused at the C-terminus to a human immunoglobulin (Ig) G1 Fc fragment which has been previously described (Geijtenbeek et al, 2002). Human milk or BSSL were diluted in 0.2 M NaHCO3, coated on ELISA plates (maxisorb plate; Nunc) and incubated overnight at 4° C. or 2 hours at 37° C. This was followed by blocking with TSM containing 1% BSA for 30 minutes at 37° C. before addition of soluble DC-SIGN-Fc (5 μg/ml) for 2 hours at RT, the binding was determined by incubation of a peroxidase labeled anti-IgG1 antibody for 30 minutes at RT. DC-SIGN-Fc binding specificity was determined by pre-incubation of the DC-SIGN-Fc with either 50 μg/ml DC-SIGN specific mouse antibody AZN-D1 (Geijtenbeek et al, 2000 a) or 10 mM EGTA.

Row | Molecule | DC-SIGN-Fc binding to coated milk compound
10 | B1 | showed no binding
11 | B2 | showed no binding
12 | B3 | showed no binding
13 | B4 | showed no binding
